Test results taken from publication PMC10491584, “Structural convergence endows nuclear transport receptor Kap114p with a transcriptional repressor function toward TATA-binding protein” (Nature Communications, 2023).

Legend:
Settings in all cases: both partners purified
[1] = target: T1, Kap95p (S. cerevisiae, UniProt Q06142 1-861); test: ITC; Kap95p with wild type or R141A yTBP^C; which protein was in the cell is not told for Kap95p; n = 3
T1 construct: Kap95p, S. cerevisiae, full length; The purification paragraph is headed for Kap114p proteins; that Kap95p was treated alike is surmised; source: E. coli, GST-tagged construct in modified pGEX6p1; purification told for the GST-tagged proteins; not shown: GST, N-terminal, cleaved
T1 sequence (looked up): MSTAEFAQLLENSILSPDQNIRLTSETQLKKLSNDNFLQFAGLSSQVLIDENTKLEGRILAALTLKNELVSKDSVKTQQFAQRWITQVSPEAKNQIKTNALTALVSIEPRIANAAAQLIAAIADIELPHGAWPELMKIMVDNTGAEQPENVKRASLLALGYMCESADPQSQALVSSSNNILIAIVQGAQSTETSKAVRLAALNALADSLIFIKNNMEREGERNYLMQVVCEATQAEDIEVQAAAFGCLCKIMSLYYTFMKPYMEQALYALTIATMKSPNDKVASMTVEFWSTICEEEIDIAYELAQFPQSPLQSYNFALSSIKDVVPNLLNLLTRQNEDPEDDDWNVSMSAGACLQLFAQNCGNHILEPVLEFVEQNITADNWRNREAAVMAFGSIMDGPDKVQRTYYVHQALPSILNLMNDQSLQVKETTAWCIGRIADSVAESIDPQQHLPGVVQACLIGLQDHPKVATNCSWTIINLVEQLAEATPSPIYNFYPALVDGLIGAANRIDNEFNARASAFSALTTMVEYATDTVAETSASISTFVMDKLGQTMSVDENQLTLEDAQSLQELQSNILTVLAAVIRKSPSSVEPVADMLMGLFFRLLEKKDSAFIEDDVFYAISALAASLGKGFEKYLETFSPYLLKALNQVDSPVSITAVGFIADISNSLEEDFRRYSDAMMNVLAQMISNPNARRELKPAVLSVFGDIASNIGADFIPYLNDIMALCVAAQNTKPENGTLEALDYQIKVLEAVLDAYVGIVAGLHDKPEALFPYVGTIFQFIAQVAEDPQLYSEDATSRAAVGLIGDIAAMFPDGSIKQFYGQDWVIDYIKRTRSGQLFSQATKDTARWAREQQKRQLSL

[2] = target: T2, Kap114p (wild type) (S. cerevisiae, UniProt P53067 1-1004); test: cryo-EM structure; components purified from E. coli, mixed at an equal molar ratio, cross-linked with 0.01% glutaraldehyde, purified by SEC; Titan Krios 300 keV
T2 construct: Kap114p, S. cerevisiae, full length, amplified from total genomic DNA; GST tag removed with PreScission protease; also called karyopherin-β Kap114p; source: E. coli Rosetta, purified (GST resin, MonoQ, Superdex 200); not shown: GST, N-terminal, cleaved
T2 sequence (looked up): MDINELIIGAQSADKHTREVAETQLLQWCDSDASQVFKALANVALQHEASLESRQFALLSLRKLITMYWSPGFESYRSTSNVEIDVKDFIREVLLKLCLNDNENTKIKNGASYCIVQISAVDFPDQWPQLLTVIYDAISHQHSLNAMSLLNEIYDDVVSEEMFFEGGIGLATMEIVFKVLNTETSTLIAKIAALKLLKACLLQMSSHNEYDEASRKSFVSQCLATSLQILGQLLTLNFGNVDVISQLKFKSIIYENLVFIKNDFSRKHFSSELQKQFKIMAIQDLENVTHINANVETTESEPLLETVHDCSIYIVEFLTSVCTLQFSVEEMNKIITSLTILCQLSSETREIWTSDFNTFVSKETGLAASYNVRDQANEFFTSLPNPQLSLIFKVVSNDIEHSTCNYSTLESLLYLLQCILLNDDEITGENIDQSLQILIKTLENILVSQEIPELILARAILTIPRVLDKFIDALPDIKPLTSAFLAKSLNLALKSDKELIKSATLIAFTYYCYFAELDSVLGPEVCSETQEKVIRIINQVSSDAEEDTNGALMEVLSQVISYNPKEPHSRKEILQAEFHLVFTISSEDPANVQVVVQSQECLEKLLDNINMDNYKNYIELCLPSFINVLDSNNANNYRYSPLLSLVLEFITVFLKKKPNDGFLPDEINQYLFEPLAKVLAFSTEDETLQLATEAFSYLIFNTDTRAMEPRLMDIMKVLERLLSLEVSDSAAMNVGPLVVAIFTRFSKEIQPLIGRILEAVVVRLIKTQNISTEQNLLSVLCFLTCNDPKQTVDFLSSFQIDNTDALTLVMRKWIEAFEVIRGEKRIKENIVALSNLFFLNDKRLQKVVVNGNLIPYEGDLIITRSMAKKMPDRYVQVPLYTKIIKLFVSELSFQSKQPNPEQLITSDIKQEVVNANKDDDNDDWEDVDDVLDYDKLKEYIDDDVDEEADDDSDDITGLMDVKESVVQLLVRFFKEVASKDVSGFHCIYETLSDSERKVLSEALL

[3] = target: T2, Kap114p (wild type); test: ITC; MicroCal iTC200, 25 °C, 20 mM HEPES pH 7.4, 150 mM NaCl; 25 or 50 μM wild type or mutant Kap114p in the cell, 250 or 500 μM wild-type or mutant yTBP^C in the syringe; triplicate
[4] = target: T3, Kap114pΔ(932-941) (S. cerevisiae, UniProt P53067 1-1004, Δ(932-941)); test: as above
T3 construct: Kap114p, S. cerevisiae, full length with residues 932-941 deleted; also called Kap114p deletion mutant lacking the α-helix of the HEAT19 loop (a.a. 932-941); source: E. coli Rosetta, purified (GST resin, MonoQ, Superdex 200); not shown: GST, N-terminal, cleaved
T3 sequence (looked up): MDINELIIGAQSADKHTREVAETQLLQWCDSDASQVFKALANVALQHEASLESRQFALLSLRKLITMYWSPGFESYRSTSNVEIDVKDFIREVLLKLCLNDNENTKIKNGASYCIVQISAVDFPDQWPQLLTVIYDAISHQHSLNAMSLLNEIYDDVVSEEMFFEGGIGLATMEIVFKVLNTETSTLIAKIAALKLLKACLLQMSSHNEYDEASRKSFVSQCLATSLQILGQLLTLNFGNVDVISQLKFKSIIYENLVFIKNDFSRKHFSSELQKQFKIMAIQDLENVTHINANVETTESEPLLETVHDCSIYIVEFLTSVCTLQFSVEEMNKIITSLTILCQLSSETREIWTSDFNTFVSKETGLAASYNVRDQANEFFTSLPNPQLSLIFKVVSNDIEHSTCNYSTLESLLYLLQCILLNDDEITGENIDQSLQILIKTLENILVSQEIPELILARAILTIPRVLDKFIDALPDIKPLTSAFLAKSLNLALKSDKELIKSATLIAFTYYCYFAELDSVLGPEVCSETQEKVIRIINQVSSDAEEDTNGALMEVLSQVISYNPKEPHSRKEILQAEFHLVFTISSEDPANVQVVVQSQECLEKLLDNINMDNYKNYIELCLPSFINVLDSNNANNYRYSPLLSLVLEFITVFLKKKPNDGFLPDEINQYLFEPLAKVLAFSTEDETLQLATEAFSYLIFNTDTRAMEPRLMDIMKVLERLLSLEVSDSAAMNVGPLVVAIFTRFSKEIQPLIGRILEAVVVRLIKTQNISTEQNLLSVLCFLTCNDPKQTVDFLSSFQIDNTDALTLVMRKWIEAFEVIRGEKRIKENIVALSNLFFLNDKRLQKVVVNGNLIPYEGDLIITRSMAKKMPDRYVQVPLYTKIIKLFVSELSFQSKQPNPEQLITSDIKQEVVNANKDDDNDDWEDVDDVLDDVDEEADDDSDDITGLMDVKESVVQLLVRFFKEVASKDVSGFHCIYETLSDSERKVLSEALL

- Kd [1]: ~8100 nM
- stoichiometry N [2]: 1
- Kd [3]: ~1 nM
- Kd [4]: ~158 nM
B1: core domain of yeast TATA-box binding protein (yTBP^C), wild type (domain or fragment, S. cerevisiae, UniProt P13393 61-240, looked up)
chain: SGIVPTLQNIVATVTLGCRLDLKTVALHARNAEYNPKRFAAVIMRIREPKTTALIFASGKMVVTGAKSEDDSKLASRKYARIIQKIGFAAKFTDFKIQNIVGSCDVKFPIRLEGLAFSHGTFSSYEPELFPGLIYRMVKPKIVLLIFVSGKIVLTGAKQREEIYQAFEAIYPVLSEFRKM
notes: 61-240; His tag removed with PreScission protease; also called yTBP core domain; source: E. coli Rosetta, purified (Ni-NTA, HiTrap SP, Superdex 75); not shown: His6, N-terminal, cleaved
